Laboratory results from PMC10599318, “RNA-sequencing analysis reveals novel genes involved in the different peel color formation in eggplant”.

T1: SmMYB113 (Solanum melongena, UniProt A0A0A0QP33 1-256)
T1 sequence: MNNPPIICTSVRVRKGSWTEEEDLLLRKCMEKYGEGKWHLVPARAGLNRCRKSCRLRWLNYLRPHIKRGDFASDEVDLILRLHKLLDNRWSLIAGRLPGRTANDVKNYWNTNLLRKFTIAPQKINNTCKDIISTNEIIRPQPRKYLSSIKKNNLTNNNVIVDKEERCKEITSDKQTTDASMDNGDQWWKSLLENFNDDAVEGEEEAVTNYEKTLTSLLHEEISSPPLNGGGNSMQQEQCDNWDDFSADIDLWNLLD

B1: SmCytb5 probe (dsDNA)
DNA 1: TCCAAGTTTTTTTCTTTGGTTGATAATTTTATCTAACG
DNA 2: CGTTAGATAAAATTATCAACCAAAGAAAAAAACTTGGA
B2: SmF3'5'M probe (dsDNA)
DNA 1: TTTTTTTTTTGCTTAGACAACTGGCAAGGATTTTACTAA
DNA 2: TTAGTAAAATCCTTGCCAGTTGTCTAAGCAAAAAAAAAA
B3: SmMATE probe (dsDNA)
DNA 1: AACAATTGCTATAACTACAGTTAGGGAATGCAATTACCG
DNA 2: CGGTAATTGCATTCCCTAACTGTAGTTATAGCAATTGTT
B4: SmASAT3 probe (dsDNA)
DNA 1: TTGGTTTTTATGGGCACAGTTGCTACTATGGGTGAATA
DNA 2: TATTCACCCATAGTAGCAACTGTGCCCATAAAAACCAA
B5: SmGST probe (dsDNA)
DNA 1: CAGACTTTCCACTCAACCACTGGTTGCTGCTCATCTTCA
DNA 2: TGAAGATGAGCAGCAACCAGTGGTTGAGTGGAAAGTCTG

Molecular target: T1, SmMYB113
Test: EMSA; EMSA per manufacturer's instructions (Thermo Pierce); buffer, salt, pH and temperature not stated; unlabeled competitor 10x, 30x, 100x
Conditions: protein: recombinant; tags: His (pET32a fusion); label: biotin; blunt

Binding result, binds:
B1
B2
B3
B4
B5
